Measurements taken from patent publication US20160340743.

Molecular target: GSK-3 fusion protein (kinase substrate, Nonradioactive AKT Kinase Assay Kit, Cell signaling 9840)

B1: BCAM-AKT2-FLAG (cloned from patient S4, expressed in OVCAR8 cells) (protein)
chain: EVRLSVPPLVEVMRGKSVILDYTPTGTHDHYMLEWFLTDRSGARPRLASAEMQGSELQVTMHDTRGRSPPYQLDSQGRLVLAEAQVGDERDYVCVVRAGAAGTAEATARLNVFAKPEATEVSPNKGTLSVMEDSAQEIATCNSRNGNPAPKITWYRNGQRLEVPVEMNPEGYMTSRTVREASGLLSLTSTLYLRLRKDDRDASFHCAAHYSLPEGRHGRLDSPTFHLTLHYPTEHVQFWVGSPSTPAGWVREGDTVQLLCRGDGSPSPEYTLFRLQDEQEEVLNVNLEGYLTLEGVTRGQSGTYGCRVEDYDAADDVQLSKTLELRVAYLDPLELNEGKVLSLPLNSSAVVNCSVHGLPTPALRWTKDSTPLGDGPMLSLSSITFDSNGTYVCEASLPTVPVLSRTQNFTLLVQGSPGLKTAEIEPKADGSWREGDEVTLICSARGHPDPKLSWSQLGGSPAEPIPGRQGWVSSSLTLKVTSALSRDGISCEASNPHGNKRHVFHFGTVSPQTSQAGVAVMAVAVSVGLLLLVVAVFYCVRRKGGPCCRQRREKGAPEEWMRAIQMVANSLKQRAPGEDPMDYKCGSPSDSSTTEEMEVAVSKARAKVTMNDFDYLKLLGKGTFGKVILVREKATGRYYAMKILRKEVIIAKDEVAHTVTESRVLQNTRHPFLTALKYAFQTHDRLCFVMEYANGGELFFHLSRERVFTEERARFYGAEIVSALEYLHSRDVVYRDIKLENLMLDKDGHIKITDFGLCKEGISDGATMKTFCGTPEYLAPEVLEDNDYGRAVDWWGLGVVMYEMMCGRLPFYNQDHERLFELILMEEIRFPRTLSPEAKSLLAGLLKKDPKQRLGGGPSDAKEVMEHRFFLSINWQDVVQKKLLPPFKPQVTSEVDTRYFDDEFTAQSITITPPDRYDSLGLLELDQRTHFPQFSYSASIRE
phosphorylation of GSK-3 (in vitro kinase assay, western blot with anti-phospho-GSK-3): incubation with immunoprecipitated BCAM-AKT2 led to efficient phosphorylation of GSK-3
